The values below come from patent US20250009852A1, “DEPLETING EGFR AND HER2 OVERCOMES RESISTANCE TO EGFR INHIBITORS IN COLORECTAL CANCER” (Health Research, Inc., priority 2021, published 2025).

A short description of data set [1]: Monitoring of mice for signs of adverse effects. To be noted: mice bearing HCT116 or HT29 tumors; aderbasib alone or the combination regimen. The format is in vivo. The method, then:
(§1) SCID mice (C.B.17 SCID) were bred by the Laboratory Animal Shared Resource at Roswell Park Comprehensive Cancer Center. Male mice at 7-8 weeks of age were used. All mouse experiments were approved by the Institutional Animal Care and Use Committee at Roswell Park Comprehensive Cancer Center under protocol 1022M. We established subcutaneous tumors by inoculating 1×10^6 HCT116 cells, 4×10^6 HT29 cells, or 2×10^6 SW48 cells to the flank of each mouse in 100 μl of serum free medium. Colon patient-derived xenograft (PDX) 14650 was established from a liver metastatic lesion in a patient treated at Roswell Park Comprehensive Cancer Center. Tumor fragments (˜20 mm^3) from donor mice were implanted into the flank of each mouse subcutaneously using a trocar. […] Subcutaneous tumor volume was measured using length ×width^2÷2. Tumor volume was measured three times each week. Orthotopic tumor growth was monitored by bioluminescence weekly. Mice were given D-luciferin (150 mg/kg) by ip and anesthetized with isoflurane, and tumor burden was measured by bioluminescence using the IVIS Spectrum In Vivo Imaging System (PerkinElmer). Drug treatment was started when significant tumor growth was detected. […] The mice were closely monitored for sign of adverse effects and weighed three times each week. […]

In another data set the test system is HCT116 tumors. Kind of data set: Subcutaneous HCT116 tumors in SCID mice. The class given is in vivo, mouse. As to conditions: sc HCT116 tumors. The method, then:
SCID mice (C.B.17 SCID) were bred by the Laboratory Animal Shared Resource at Roswell Park Comprehensive Cancer Center. Male mice at 7-8 weeks of age were used. All mouse experiments were approved by the Institutional Animal Care and Use Committee at Roswell Park Comprehensive Cancer Center under protocol 1022M. We established subcutaneous tumors by inoculating 1×10^6 HCT116 cells, 4×10^6 HT29 cells, or 2×10^6 SW48 cells to the flank of each mouse in 100 μl of serum free medium. Colon patient-derived xenograft (PDX) 14650 was established from a liver metastatic lesion in a patient treated at Roswell Park Comprehensive Cancer Center. Tumor fragments (˜20 mm^3) from donor mice were implanted into the flank of each mouse subcutaneously using a trocar. Orthotopic colon tumors in mice were established by inoculating HCT116 cells stably transfected with firefly luciferase (2×10^6 cells in 50 μl of 50% serum-free medium and 50% Matrigel) to the caecum wall of each mouse. Mice in each tumor model were randomized cage-wise into treatment groups using Research Randomizer (www.randomizer.org). Subcutaneous tumor volume was measured using length ×width^2÷2. Tumor volume was measured three times each week. Orthotopic tumor growth was monitored by bioluminescence weekly. Mice were given D-luciferin (150 mg/kg) by ip and anesthetized with isoflurane, and tumor burden was measured by bioluminescence using the IVIS Spectrum In Vivo Imaging System (PerkinElmer). Drug treatment was started when significant tumor growth was detected. EP (0.5 mg/kg) was administered to mice ip once daily. […] Aderbasib (60 mg/kg) was administered to mice by gavage once daily. 5-FU (35 mg/kg) was administered to mice ip twice weekly (Monday and Thursday). EP, PEPD^G278D and 5-FU were administered to mice in PBS. Aderbasib was first dissolved in DMSO and then diluted by PBS (final 5% DMSO by volume). Each agent was administered to mice at 0.1 ml volume per 20 g body weight. When a mouse was given multiple agents on the same day, the agents were dosed at approximately 30 min intervals. The mice were closely monitored for sign of adverse effects and weighed three times each week. Mice were sacrificed 24-48 hours after the last treatment, at which point the tumors were promptly removed, snap frozen and stored at −80° C. for later analysis. Some tumors were fixed in 10% buffered formalin, paraffin embedded, cut at 4 μm, and stained with hematoxylin and eosin (H & E) for histological analysis.

A further data set relates to SW48 tumors. Kind of data set: Subcutaneous SW48 tumors in SCID mice. The format is in vivo, mouse. As to conditions: sc SW48 tumors; EP 0.5 mg/kg ip daily plus PEPD^G278D 4 mg/kg ip three times weekly, or cetuximab 15 mg/kg ip twice weekly. The method, then:
as §1

For the molecule `COC(=O)N1CC2(CC2)C[C@H](C(=O)NO)[C@H]1C(=O)N1CC=C(c2ccccc2)CC1` [aderbasib], in data set [1], the signs of toxicity entry was “did not show signs of toxicity”. Besides, in the data set with HCT116 tumors (aderbasib alone 60 mg/kg by gavage daily), the tumor growth result was “ineffective”.

B1: PEPD^G278D: recombinant and enzymatically inactive mutant of human peptidase D (PEPD), with replacement of glycine 278 by aspartic acid (protein)
chain: AAATGPSFWLGNETLKVPLALFALNRQRLCERLRKNPAVQAGSIVVLQGGEETQRYCTDTGVLFLQESFFHWAFGVTEPGCYGVIDVDTGKSTLFVPRLPASHATWMGKIHSKEHFKEKYAVDDVQYVDEIASVLTSQKPSVLLTLRGVNTDSGSVCREASFDGISKFEVNNTILHPEIVESRVFKTDMELEVLRYTNKISSEAHREVMKAVKVGMKEYGLESLFEHYCYSRGGMRHSSYTCICGSGENSAVLHYGHAGAPNDRTIQNGDMCLFDMDGEYYSVASDITCSFPRNGKFTADQKAVYEAVLLSSRAVMGAMKPGDWWPDIDRLADRIHLEELAHMGILSGSVDAMVQAHLGAVFMPHGLGHFLGIDVHDVGGYPEGVERIDEPGLRSLRTARHLQPGMVLTVEPGIYFIDHLLDEALADPARASFLNREVLQRFRGFGGVRIEEDVVVIDSGIELLTCVPRTVEEIEACMAGCDKAFTPFSGPK
modifications: left off: small tags and cut ends
Take B1: the tumor growth entry in the data set on HCT116 tumors (EP plus PEPD^G278D 4 mg/kg ip three times weekly, or cetuximab 15 mg/kg ip twice weekly) is “neither agent inhibited the growth”; with HCT116 tumors (EP plus PEPD^G278D 8 mg/kg ip thrice weekly), “did not inhibit tumor growth”. The “inhibition of tumor growth at the end of treatment” value in the data set with SW48 tumors was found to be 91.5%.
